# From patent US20240043504A1
# Legend:
# [1] = biological target: T1, SARS-CoV-2 Spike Protein (RBD)(R319-F541).mmH (SARS-CoV-2); test: Luminex bead binding, supernatant; conditions: remark: other sources report otherwise
# [2] = biological target: T1, SARS-CoV-2 Spike Protein …; test: Luminex bead binding, supernatant; conditions: remark: other sources report otherwise; remark: listed apart in the source
Binder,Binding signal (MFI) [1],Binding signal (MFI) [2]
"mAb11004 (antibody, V domains shown) VH: QVQLVESGGGVVQPGRSLRLSCVASGFTFSIYGMDWVRQAPGKGLEWVAVISYDGSNKYYADSVKGRFTISRDNSKNTLYLQMNSLRPEDTAVYYCAKDREAAADAFDIWGQGTMVTVSS VL: DIQMTQSPSSVSASVGDRVTITCRASQGISSWLAWYQQKPGKAPKLLIYAASSLHSGVPSRFSGSGSGTDFTLTISSLQPEDFATYYCQQANSFRLTFGGGTKVEIK",3350 MFI,11300 MFI
"mAb11006 (antibody, V domains shown) VH: EVQLVESGGGLVQPGGSLRLSCAASGFIVSRNYMSWVRQAPGKGLEWVSVIYSGGSTFYADSVKGRFTISRHNSKNTLYLQMNSLKAEDTAVYYCARELRGYFDYWGQGTLVTVSS VL: DIQLTQSPSFLSASVGDRVTITCWASQGISSYLAWYQQKPGKAPKLLIYAASTLQSGVPSRFSGSGSGTEFTLTISSLQPEDFATYYCQLLNSYPYTFGQGTKLEIK",5130 MFI,4740 MFI
"mAb11008 (antibody, V domains shown) VH: EVQLVESGGGLVQPGGSLRLSCAASGFTVSSNYMTWVRQAPGKGLEWVSVIYSGGSTFYADSVKGRFTISRHNSENTLYLQMNSLRAEDTAVYYCARDLAAAGTDYWGQGALVTVSS VL: DIQLTQSPSFLSASVGDRVTITCWASQGISSYLAWYQQKPGKAPKLLIYAASTLQSGVPSRFSGSGSGTEFTLTISSLQPDDFATYYCQHLNSYLYTFGQGTKLEIK",4050 MFI,3180 MFI
"mAb10998 (antibody, V domains shown) VH: EVQLVESGGGLVHPGGSLRLSCAASGLTVSSNYMSWVRQAPGKGLEWVSVIYSGGSTYYADSVKGRFTISRHNSKNTLFLQMNSLRAEDTAVYYCARDRPITGTTLDVWGQGTTVTVSS VL: DIQMTQSPSSLFASVGDRVTITCRASQSISSYLNWYQQKPGKAPKLLIYAASSLQSGVPSRFSGSGSGTDFTLTISSLQPEDFAFYYCQQTYSTPPITFGQGTRLEIK",1850 MFI,3840 MFI
